The DeepSol protein solubility set

experiment: soluble on expression in E. coli; label from the status in PepcDB or PDB records

Row | Sequence | soluble on expression in E. coli
1 | MSLILFFYFMVLSEACMRTVAPEDVYISSTFPFEDFTTEAVVTTDSSTISQLTTETTMETVETHIFYVTCKNRYPISNRNCLINRHTDDFFCFILPVDACMRTVPPEDVYISITLPYEDFTTESNEIAVTTDSSTVPQLVTETTEIPTATTTPGWSSKTELHWKISKILNTK | not soluble
2 | LKQLLALDKNIERMECFDISHTQGEATVASCVVFDTEGPRPSEYRRFNIEGITPGDDYAAMEQAVTRRFKRLIDVQLLPDVLIIDGGKGQVSIVKRVLTSLGVEDITLLGVSKGPSRKAGWEKLILVNENREFVLPEDSKALHLLQHIRDEAHRFAI | not soluble
3 | MVNLDAEIYEHLNKQIKINELRYLSSGDDSDTFLCNEQYVVKVPKRDSVRISQKREFELYRFLENCKLSYQIPAVVYQSDRFNIMKYIKGERITYEQYHKLSEKEKDALAYDEATFLKELHSIEIDCSVSLFSDALVNKKDKFLQDKKLLISILEKEQLLTDEMLEHIETIYENILNNAVLFKYTPCLVHNDFSANNMIFRNNRLFGVIDFGDFNVGDPDNDFLCLLDCSTDDFGKEFGRKVLKYYQHKAPEVAERKAELNDVYWSIDQIIYGYERKDREMLIKGVSELLQTQAEMFIF | soluble
4 | EKQSIHRTQLEALDSVITDLETSAQKGISLTEPEIFASLLETCYSLRAIDHGVRVHHLIPPYLLRNNLGISSKLVRLYASCGYAEVAHEVFDRMSKRDSSPFAWNSLISGYAELGQYEDAMALYFQMAEDGVKPDRFTFPRVLKACGGIGSVQIGEAIHRDLVKEGFGYDVYVLNALVVMYAKCGDIVKARNVFDMIPHKDYVSWNSMLTGYLHHGLLHEALDIFRLMVQNGIEPDKVAISSVLARVLSFKHGRQLHGWVIRRGMEWELSVANALIVLYSKRGQLGQACFIFDQMLERDTVSWNAIISAHSKNSNGLKYFEQMHRANAKPDGITFVSVLSLCANTGMVEDGERLFSLMSKEYGIDPKMEHYACMVNLYGRAGMMEEAYSMIVQEMGLEAGPTVWGALLYACYLHGNTDIGEVAAQRLFELEPDNEHNFELLIRIYSKAKRAEDVERVRQMMVDRGLET | soluble
5 | MPIPNNPGAGENAFDPVFVKDDDGYDLDSFMIPAHYKKYLTKVLVPNGVIKNRIEKLARDVMKEMGGHHIVALCVLKGGYKFFADLLDYIKALNRNSDRSIPMTVDFIRLKSYCNDQSTGDIKVIGGDDLSTLTGKNVLIVEDIIDTGKTMQTLLSLVRQYNPKMVKVACLFIKRTPLWNGFKADFVGFSIPDHFVVGYSLDYNEIFRDLDHCCLVNDEGKKKYKATSL | soluble
6 | MTELKLIHIFTDGSCLGNPGPGGYGIVMKYKGHTKEMSGGFSLTTNNRMELLAPIVALEALKEPCKIILTSDSQYVRQGIMTWIHGWKKNGWMTSNGTPVKNVDLWKRLDKAAQLHQIDWRWVKGHAGHAENERCHQLARAAAEANPTQIDTGYQAES | soluble
7 | MGTTVEGGRSGPRYVQVADEIVQQIRAGVLKPGDMVPSESEMVDRYGVSGGTIRKAMVEVRASGLVETRHGKGSIVKDRPPVRHRSSDRFRRSLRQGGKAAYLAESEQSGATAKVSVLYIGPMEAPADAAQRLGVPAGTQVLARRRLYFRNGTPVETASSYLPWDVVKDIPELFAENPGGGGIYARLEDHGHEFAEFVETLQARPASKAEATELALSPGAPVVHLIREARTAAGLVVEVCDTLMAADQFVFEYRIPAAD | not soluble
8 | MSLDTVVKVGFAAPLTGPNANYGKDLENGVKMALDDAKAQGVKINGQPVTFQLVAEDDQADPRIGVQVAQKLIDEGVSVVVGHFNSGTTIPASNLYEKAGLPDIDPAATNPTISSRGFKNMFMVISSDAQNAGTAGAYAVETTKAKRIAVIDDRTAFGQGEADEFVKAVKAHGGDIIDREYTTNQATDFKTQLTNLKAKNPDLIFVGALNPQAAGIMKQMNQLGIKAQYVGGGGVKDIDFIKLAGDVSEGAMAWEYGRPLDSTPVGAKFAERFKQKFGEDVLSYAPFGYDAAWAAIKAMQAANSTKPDDYRSKLQSISFEGITGHIEFNANGSLKNGSSTVYQVKNGQWVTVKTVSGEGHHHHHH | soluble
9 | MGFLWKTAKLGIKVGLVAGAVKLSIDNDIWSTNNVKGSELYQKLKKYILPGTVVFPEQLPTVEDVQLKAGGKWNSAVDSVFTTIENVPSSVNTVANRLINNK | not soluble
